Data reported in paper PMC8835725, “Cryo‐EM structure of the full‐length Lon protease from Thermus thermophilus” (Febs Letters, 2021).
Values joined by “and” are separate entries in the source; they are usually repeats but may differ in a detail not shown here. Identical values can stand only once.

B1: N-terminally truncated mutant EcLon^253-784 (domain or fragment, Escherichia coli, UniProt P0A9M0 253-784, looked up)
chain: ALKRKIDAAKMPKEAKEKAEAELQKLKMMSPMSAEATVVRGYIDWMVQVPWNARSKVKKDLRQAQEILDTDHYGLERVKDRILEYLAVQSRVNKIKGPILCLVGPPGVGKTSLGQSIAKATGRKYVRMALGGVRDEAEIRGHRRTYIGSMPGKLIQKMAKVGVKNPLFLLDEIDKMSSDMRGDPASALLEVLDPEQNVAFSDHYLEVDYDLSDVMFVATSNSMNIPAPLLDRMEVIRLSGYTEDEKLNIAKRHLLPKQIERNALKKGELTVDDSAIIGIIRYYTREAGVRGLEREISKLCRKAVKQLLLDKSLKHIEINGDNLHDYLGVQRFDYGRADNENRVGQVTGLAWTEVGGDLLTIETACVPGKGKLTYTGSLGEVMQESIQAALTVVRARAEKLGINPDFYEKRDIHVHVPEGATPKDGPSAGIAMCTALVSCLTGNPVRADVAMTGEITLRGQVLPIGGLKEKLLAAHRGGIKTVLIPFENKRDLEEIPDNVIADLDIHPVKRIEEVLTLALQNEPSGMQVVTAK
notes: Lon protease, Escherichia coli, UniProt P0A9M0, residues 253-784 (lacks the NTD and the collar); Tags and their cleavage follow from 'produced as described for full-length EcLon'; also called EcLon truncation including residues 253 to 784; source: E. coli C41(DE3), purified, produced as described for full-length EcLon; not shown: His6, N-terminal, cleaved; SUMO, N-terminal, cleaved
B2: Lon protease from Thermus thermophilus (enzyme, UniProt Q72KS4 1-795, looked up)
chain: MKDFLRLELPVLPLRNTVVLPHTTTGVDVGRLKSKRAVEEALSADRLLFLVTQKDPEVDDPAPEDLYAVGTLAVVKQAMRLPDGTLQVMVEARSRARLLSYVAAPYLRAVGEAIPEPPLKDPELARVLVNEVQEAFERYLQNHKTLRLDRYQQEAVKSTRDPAILADLVAHHATWTLEEKQTILETPEVEERLKRVLALLLRDLERFELDKKIAARVKEQMDQNQREYYLREQMKAIQKELGGGEDFLTEIEELRERIEKKGMPEPVKEKALKELKRLERMQPGSPEATVSRTYLDWLLEVPWTEADPEVLDISVTKRVLDEDHYGLKEVKERILEYLAVRQLTQGKEVKGHAPILCFVGPPGVGKTSLGKSIARSMNRRFHRISLGGVRDEAEIRGHRRTYIGALPGKIIQGMKQVGVVNPVFLLDEIDKLSSDWRGDPAAALLEVLDPEQNHTFTDHYLDVPYDLSKVFFITTANTLSTIPRPLLDRMEVIEIPGYTLHEKRAIARYFRWPFQVKEAGLEGRLEITDRAIERIVQEYTREAGVRNLDRELSKVARKAAKDYLEKPWEGVRVVDAEDLEAYLGVPKYRPDRAEKEPQVGAAQGLAWTPYGGTLLTIEAVAVPGTGKVNLTGNLGEVMKESAHAALTYLRAHREEWGLPEGFHKDYDLHIHVPEGATPKDGPSAGITIATALASALTGRPVRMDIAMTGEITLRGRVLPIGGVKEKLLAAHQAGIHRVILPKENAAELKEVPEEILKDLEIHFVEEVGEVLKLLLLPPPPPPAVQPDRPQPGVGA
notes: Lon protease, Thermus thermophilus, UniProt Q72KS4, full length, untagged and unmodified after SUMO cleavage; Homo-hexamer; cryo-EM sample in buffer A with 1 mM AMP-PNP and 5 mM MgCl2; also called TtLon; Lon from T. thermophilus; source: E. coli C41(DE3), purified (Ni-NTA, SUMO tag cleaved with SENP protease, Superose 6 Increase SEC); not shown: His6, N-terminal, cleaved; SUMO, N-terminal, cleaved
B3: Lon protease from Escherichia coli, full length (enzyme, UniProt P0A9M0 1-784, looked up)
chain: MNPERSERIEIPVLPLRDVVVYPHMVIPLFVGREKSIRCLEAAMDHDKKIMLVAQKEASTDEPGVNDLFTVGTVASILQMLKLPDGTVKVLVEGLQRARISALSDNGEHFSAKAEYLESPTIDEREQEVLVRTAISQFEGYIKLNKKIPPEVLTSLNSIDDPARLADTIAAHMPLKLADKQSVLEMSDVNERLEYLMAMMESEIDLLQVEKRIRNRVKKQMEKSQREYYLNEQMKAIQKELGEMDDAPDENEALKRKIDAAKMPKEAKEKAEAELQKLKMMSPMSAEATVVRGYIDWMVQVPWNARSKVKKDLRQAQEILDTDHYGLERVKDRILEYLAVQSRVNKIKGPILCLVGPPGVGKTSLGQSIAKATGRKYVRMALGGVRDEAEIRGHRRTYIGSMPGKLIQKMAKVGVKNPLFLLDEIDKMSSDMRGDPASALLEVLDPEQNVAFSDHYLEVDYDLSDVMFVATSNSMNIPAPLLDRMEVIRLSGYTEDEKLNIAKRHLLPKQIERNALKKGELTVDDSAIIGIIRYYTREAGVRGLEREISKLCRKAVKQLLLDKSLKHIEINGDNLHDYLGVQRFDYGRADNENRVGQVTGLAWTEVGGDLLTIETACVPGKGKLTYTGSLGEVMQESIQAALTVVRARAEKLGINPDFYEKRDIHVHVPEGATPKDGPSAGIAMCTALVSCLTGNPVRADVAMTGEITLRGQVLPIGGLKEKLLAAHRGGIKTVLIPFENKRDLEEIPDNVIADLDIHPVKRIEEVLTLALQNEPSGMQVVTAK
notes: Lon protease, Escherichia coli, UniProt P0A9M0, full length, untagged after SUMO cleavage; Seen as a mixture of hexamers and dodecamers on EM grids; also called EcLon; EcLon^FL; source: E. coli C41(DE3), purified (Ni-NTA, SUMO tag cleaved with SENP protease, Superose 6 Increase SEC); not shown: His6, N-terminal, cleaved; SUMO, N-terminal, cleaved

Legend:
[1] = target: the molecule itself; experiment: SEC + other: negative staining electron microscopy; Superose 6 Increase 10/300 GL in buffer A (50 mM Tris/HCl, 200 mM NaCl, pH 8.0); oligomer size by column calibration, verified by negative staining EM
[2] = target: the molecule itself; experiment: electron microscopy on grids; purified EcLon on EM grids

| Protein | stoichiometry N [1] | stoichiometry N [2] |
| --- | --- | --- |
| B1 | 6 |  |
| B2 | 6 |  |
| B3 |  | 6 and 12 |
